These results are taken from US20240317872A1 (WUXI BIOLOGICS IRELAND, published 2024).

The assay has as its target T1, Human PD-L1 (human, UniProt Q9NZQ7 19-290).
T1 construct: whole, on cells; also called target-A
In words: flow cytometry on CHO-K1 cells expressing human PD-L1. How it is done: Human PD-L1-expressing cells W315-CHOK1.hPro1.C11 (×10^5 cells/well) and 4-1BB-expressing cells WBP342-CHO-K1.hPro1.C1 were incubated with various concentrations of testing antibodies at 4° C. for 1 hour. […] The cells were then washed and resuspended in DPBS with 1% BSA. MFI of the cells was measured by a flow cytometer and analyzed by FlowJo.
As shown in FIG. 7 and Table 7, compared to the reference molecule, the T8311 variants kept the target binding ability very well.
On the technique in general: Flow cytometry measures light scatter and fluorescence of single cells or particles in a stream.

Substitutions are numbered along the chain they refer to. Numbers in names are those of the source.

T1 sequence (Q9NZQ7 19-290): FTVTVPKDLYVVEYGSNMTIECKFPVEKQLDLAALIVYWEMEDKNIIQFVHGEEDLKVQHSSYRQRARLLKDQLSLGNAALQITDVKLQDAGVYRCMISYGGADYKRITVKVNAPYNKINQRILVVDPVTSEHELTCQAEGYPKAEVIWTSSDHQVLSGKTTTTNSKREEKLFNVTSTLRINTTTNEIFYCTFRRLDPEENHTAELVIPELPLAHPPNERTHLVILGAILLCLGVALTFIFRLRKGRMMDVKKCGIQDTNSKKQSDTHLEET

B1: T8311-U14T2.G25R-61.uIgG1 (bispecific antibody)
heavy: not shown
light 1: SYELTQPPSVSVSPGQTASITCSGSELPKRYAYWYQQKPGQSIVRVIYKDSERPSGISERFSGSSSGNTATLTISGTQAMDEADYYCSSTYGDRKLPIFGGGTKLTVLGQPKAAPSVTLFPPSSEELQANKATLVCLISDFYPGAVTVAWKADSSPVKAGVETTTPSKQSNNKYAASSYLSLTPEQWKSHKSYSCQVTHEGSTVEKTVAPTECS
light 2: SYVLTQPPSVSVAPGQTARMTCGGDNIGIKIVHWYQQKAGQAPVLVVYDDNDRPSGIPDRFSGSNSGNTATLTISRVAAGDEADYYCQVWDRRSDHVVFGGGTKLTVLPDIQNPDPAVYQLRDSKSSDKSVCLFTDFDSQTQVSQSKDSDVYITDKCVLDMRSMDFKSNSAVAWSQKSDFACANAFQNSIIPEDTFFCS
notes: also called T8311-61; Design-61
On to B1, for which a half-maximal effect (EC50) was put at 0.179 nM and the “Top (MFI)” value stood at 7880 MFI.

B2: T8311-U14T2.G25R-54.uIgG1 (bispecific antibody)
heavy: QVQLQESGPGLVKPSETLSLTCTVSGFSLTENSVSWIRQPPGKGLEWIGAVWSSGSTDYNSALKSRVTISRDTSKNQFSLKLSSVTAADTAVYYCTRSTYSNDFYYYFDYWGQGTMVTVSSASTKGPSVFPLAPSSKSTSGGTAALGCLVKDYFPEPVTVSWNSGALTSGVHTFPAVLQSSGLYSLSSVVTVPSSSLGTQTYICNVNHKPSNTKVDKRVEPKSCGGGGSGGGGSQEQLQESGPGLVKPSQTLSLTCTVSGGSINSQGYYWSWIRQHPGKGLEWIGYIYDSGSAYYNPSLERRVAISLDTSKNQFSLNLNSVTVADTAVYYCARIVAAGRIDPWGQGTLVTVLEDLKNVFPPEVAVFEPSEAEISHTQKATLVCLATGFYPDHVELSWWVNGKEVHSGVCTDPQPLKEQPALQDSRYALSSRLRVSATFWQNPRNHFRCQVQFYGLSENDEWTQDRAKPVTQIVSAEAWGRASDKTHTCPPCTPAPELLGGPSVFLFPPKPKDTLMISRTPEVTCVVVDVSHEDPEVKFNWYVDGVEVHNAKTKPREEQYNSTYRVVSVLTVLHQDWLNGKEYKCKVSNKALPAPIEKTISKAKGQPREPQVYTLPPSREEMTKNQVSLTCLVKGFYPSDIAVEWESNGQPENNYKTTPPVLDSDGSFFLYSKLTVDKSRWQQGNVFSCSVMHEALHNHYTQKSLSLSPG
light 1: B1 light 1
light 2: B1 light 2 with P116C, P192C, C198P
notes: also called T8311-54
Take B2: the EC50 (as a rule, the concentration that produces a half-maximal response) is 0.23 nM and the “Top (MFI)” value was 8120 MFI.
